Source: patent US20240016931A1 (JIANGSU HENGRUI PHARMACEUTICALS, published 2024)

Key:
[1] = target: T1, Fc-tagged human TSLP antigen (huTSLP-Fc) (human, biotin-labeled in the blocking assays); assay: competition ELISA: blocks TSLP binding to TSLP receptor
T1 construct: whole entry named; also called recombinant human TSLP-Fc

[2] = target: T2, His-tagged human TSLP antigen (huTSLP-his) (human); assay: ELISA, coated huTSLP-his;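 note: binding of antibodies to plate-bound TSLP read as absorbance at 450 nm after TMB colour development, EC50 derived from binding curves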
T2 construct: Secreted from HEK293E and purified on nickel; whole entry named; also called Human TSLP-his

Row | Binder | IC50 [1] [pM] | EC50 [2] [pM]
1 | hu199-08 (antibody, human IgG1, kappa, V domains shown, IgG1-YTE, kappa) VH: EVQLVQSGAEVKKPGASVKVSCKASGYTFTTYWMHWVRQAPGQGLEWMGMIDPSDSETTLIQKFKDRVTLTVDKSTSTAYMELSSLRSEDTAVYYCARTLDGYYDYWGQGTTVTVSS VL: DIQMTQSPSSLSASVGDRVTITCRASENIYSYLAWYQQKPGKAPKLLVYFAKTLAEGVPSRFSGSGSGTDFTLTISSLQPEDFATYYCQHHYGTPWTFGGGTKVEIKR | 283 | 
2 | hu199-03 (antibody, human IgG1, kappa, V domains shown, IgG1-YTE, kappa) VH: EVQLVQSGAEVKKPGASVKVSCKASGYTFTTYWMHWVRQAPGQGLEWMGMIDPSDSETTLIQKFKDRVTMTVDKSTSTAYMELSSLRSEDTAVYYCARTLDGYYDYWGQGTTVTVSS VL: DIQMTQSPSSLSASVGDRVTITCRASENIYSYLAWYQQKPGKSPQLLVYFAKTLAEGVPSRFSGSGSGTQFTLTISSLQPEDFATYYCQHHYGTPWTFGGGTKVEIKR | 208 | 
3 | hu199-04 (antibody, human IgG1, kappa, V domains shown, IgG1-YTE, kappa) VH: EVQLVQSGAEVKKPGASVKVSCKASGYTFTTYWMHWVRQAPGQGLEWMGMIDPSDSETTLIQKFKDRVTMTVDKSTSTAYMELSSLRSEDTAVYYCARTLDGYYDYWGQGTTVTVSS VL: DIQMTQSPSSLSASVGDRVTITCRASENIYSYLAWYQQKPGKAPKLLIYFAKTLAEGVPSRFSGSVSGTDFTLTISSLQPEDFATYYCQHHYGTPWTFGGGTKVEIKR | 424 | 
4 | hu199-05 (antibody, human IgG1, kappa, V domains shown, IgG1-YTE, kappa) VH: EVQLVQSGAEVKKPGASVKVSCKASGYTFTTYWMHWVRQAPGQGLEWMGMIDPSDSETTLIQKFKDRVTMTVDKSTSTAYMELSSLRSEDTAVYYCARTLDGYYDYWGQGTTVTVSS VL: DIQMTQSPSSLSASVGDRVTITCRASENIYSYLAWYQQKPGKAPKLLVYFAKTLAEGVPSRFSGSVSGTDFTLTISSLQPEDFATYYCQHHYGTPWTFGGGTKVEIKR | 473 | 
5 | hu199-06 (antibody, human IgG1, kappa, V domains shown, IgG1-YTE, kappa) VH: EVQLVQSGAEVKKPGASVKVSCKASGYTFTTYWMHWVRQAPGQGLEWMGMIDPSDSETTLIQKFKDRVTMTVDKSTSTAYMELSSLRSEDTAVYYCARTLDGYYDYWGQGTTVTVSS VL: DIQMTQSPSSLSASVGDRVTITCRASENIYSYLAWYQQKPGKSPQLLVYFAKTLAEGVPSRFSGSVSGTQFTLTISSLQPEDFATYYCQHHYGTPWTFGGGTKVEIKR | 381 | 
6 | hu199-01 (antibody, human IgG1, kappa, V domains shown, IgG1-YTE, kappa) VH: EVQLVQSGAEVKKPGASVKVSCKASGYTFTTYWMHWVRQAPGQGLEWMGMIDPSDSETTLIQKFKDRVTMTVDKSTSTAYMELSSLRSEDTAVYYCARTLDGYYDYWGQGTTVTVSS VL: DIQMTQSPSSLSASVGDRVTITCRASENIYSYLAWYQQKPGKAPKLLIYFAKTLAEGVPSRFSGSGSGTDFTLTISSLQPEDFATYYCQHHYGTPWTFGGGTKVEIKR | 191 | 
7 | hu199-02 (antibody, human IgG1, kappa, V domains shown, IgG1-YTE, kappa) VH: EVQLVQSGAEVKKPGASVKVSCKASGYTFTTYWMHWVRQAPGQGLEWMGMIDPSDSETTLIQKFKDRVTMTVDKSTSTAYMELSSLRSEDTAVYYCARTLDGYYDYWGQGTTVTVSS VL: DIQMTQSPSSLSASVGDRVTITCRASENIYSYLAWYQQKPGKAPKLLVYFAKTLAEGVPSRFSGSGSGTDFTLTISSLQPEDFATYYCQHHYGTPWTFGGGTKVEIKR | 219 | 
8 | hu179-28 (antibody, human IgG1, kappa, V domains shown, IgG1-YTE, kappa) VH: EVQLVQSGAEVKKPGSSVKVSCKASGYTFSNYLIEWVRQAPGQGLEWIGVIDPGNGDTNYNENFKGRATLTADKSTSTAYIELSSLRSEDTAVYYCAREDNTGTAFDYWGQGTTVTVSS VL: DIVMTQSPDSLAVSLGERATINCKASQSVSSDVTWYQQKPGQSPKLLIYYVSQHYTGVPDRFSGSGSGTDFTLTISSLQAEDVAVYYCQQHHRFPLTFGQGTKLEIKR |  | 90.6
9 | hu179-31 (antibody, human IgG1, kappa, V domains shown, IgG1-YTE, kappa) VH: EVQLVQSGAEVKKPGSSVKVSCKASGYTFSNYLIEWVRQAPGQGLEWIGVIDPGNGDTNYNENFKGRATLTADKSTSTAYIELSSLRSEDTAVYYCAREDNTGTAFDYWGQGTTVTVSS VL: DIVMTQSPDSLAVSLGERATINCKASQSVSSDVTWYQQKPGQSPKLLIYYVSNEYTGVPDRFSGSGSGTDFTLTISSLQAEDVAVYYCQQHHRFPLTFGQGTKLEIKR |  | 201
10 | hu179-29 (antibody, human IgG1, kappa, V domains shown, IgG1-YTE, kappa) VH: EVQLVQSGAEVKKPGSSVKVSCKASGYTFSNYLIEWVRQAPGQGLEWIGVIDPGNGDTNYNENFKGRATLTADKSTSTAYIELSSLRSEDTAVYYCAREDNTGTAFDYWGQGTTVTVSS VL: DIVMTQSPDSLAVSLGERATINCKASQSVSSDVTWYQQKPGQSPKLLIYYVSEHYTGVPDRFSGSGSGTDFTLTISSLQAEDVAVYYCQQHHRFPLTFGQGTKLEIKR |  | 204
11 | hu179-30 (antibody, human IgG1, kappa, V domains shown, IgG1-YTE, kappa) VH: EVQLVQSGAEVKKPGSSVKVSCKASGYTFSNYLIEWVRQAPGQGLEWIGVIDPGNGDTNYNENFKGRATLTADKSTSTAYIELSSLRSEDTAVYYCAREDNTGTAFDYWGQGTTVTVSS VL: DIVMTQSPDSLAVSLGERATINCKASQSVSSDVTWYQQKPGQSPKLLIYYVSNDYTGVPDRFSGSGSGTDFTLTISSLQAEDVAVYYCQQHHRFPLTFGQGTKLEIKR |  | 246
12 | hu179-32 (antibody, human IgG1, kappa, V domains shown, IgG1-YTE, kappa) VH: EVQLVQSGAEVKKPGSSVKVSCKASGYTFSNYLIEWVRQAPGQGLEWIGVIDPGNGDTNYNENFKGRATLTADKSTSTAYIELSSLRSEDTAVYYCAREDNTGTAFDYWGQGTTVTVSS VL: DIVMTQSPDSLAVSLGERATINCKASQSVSSDVTWYQQKPGQSPKLLIYYVSNHETGVPDRFSGSGSGTDFTLTISSLQAEDVAVYYCQQHHRFPLTFGQGTKLEIKR |  | 145

Second part, the binder after the results:

Row | IC50 [1] [pM] | EC50 [2] [pM] | Binder
13 | 273 |  | hu199-09 (antibody, human IgG1, kappa, V domains shown, IgG1-YTE, kappa) VH: EVQLVQSGAEVKKPGASVKVSCKASGYTFTTYWMHWVRQAPGQGLEWMGMIDPSDSETTLIQKFKDRVTLTVDKSTSTAYMELSSLRSEDTAVYYCARTLDGYYDYWGQGTTVTVSS VL: DIQMTQSPSSLSASVGDRVTITCRASENIYSYLAWYQQKPGKSPQLLVYFAKTLAEGVPSRFSGSGSGTQFTLTISSLQPEDFATYYCQHHYGTPWTFGGGTKVEIKR
14 | 370 |  | hu199-12 (antibody, human IgG1, kappa, V domains shown, IgG1-YTE, kappa) VH: EVQLVQSGAEVKKPGASVKVSCKASGYTFTTYWMHWVRQAPGQGLEWMGMIDPSDSETTLIQKFKDRVTLTVDKSTSTAYMELSSLRSEDTAVYYCARTLDGYYDYWGQGTTVTVSS VL: DIQMTQSPSSLSASVGDRVTITCRASENIYSYLAWYQQKPGKSPQLLVYFAKTLAEGVPSRFSGSVSGTQFTLTISSLQPEDFATYYCQHHYGTPWTFGGGTKVEIKR
15 | 365 |  | hu199-11 (antibody, human IgG1, kappa, V domains shown, IgG1-YTE, kappa) VH: EVQLVQSGAEVKKPGASVKVSCKASGYTFTTYWMHWVRQAPGQGLEWMGMIDPSDSETTLIQKFKDRVTLTVDKSTSTAYMELSSLRSEDTAVYYCARTLDGYYDYWGQGTTVTVSS VL: DIQMTQSPSSLSASVGDRVTITCRASENIYSYLAWYQQKPGKAPKLLVYFAKTLAEGVPSRFSGSVSGTDFTLTISSLQPEDFATYYCQHHYGTPWTFGGGTKVEIKR
16 | 240 |  | hu199-13 (antibody, human IgG1, kappa, V domains shown, IgG1-YTE, kappa) VH: EVQLVQSGAEVKKPGASVKVSCKASGYTFTTYWMHWVRQAPGQGLEWIGMIDPSDSETTLIQKFKDRATLTVDKSTSTAYMELSSLRSEDTAVYYCARTLDGYYDYWGQGTTVTVSS VL: DIQMTQSPSSLSASVGDRVTITCRASENIYSYLAWYQQKPGKAPKLLIYFAKTLAEGVPSRFSGSGSGTDFTLTISSLQPEDFATYYCQHHYGTPWTFGGGTKVEIKR
17 | 311 |  | hu199-14 (antibody, human IgG1, kappa, V domains shown, IgG1-YTE, kappa) VH: EVQLVQSGAEVKKPGASVKVSCKASGYTFTTYWMHWVRQAPGQGLEWIGMIDPSDSETTLIQKFKDRATLTVDKSTSTAYMELSSLRSEDTAVYYCARTLDGYYDYWGQGTTVTVSS VL: DIQMTQSPSSLSASVGDRVTITCRASENIYSYLAWYQQKPGKAPKLLVYFAKTLAEGVPSRFSGSGSGTDFTLTISSLQPEDFATYYCQHHYGTPWTFGGGTKVEIKR
18 | 283 |  | hu199-07 (antibody, human IgG1, kappa, V domains shown, IgG1-YTE, kappa) VH: EVQLVQSGAEVKKPGASVKVSCKASGYTFTTYWMHWVRQAPGQGLEWMGMIDPSDSETTLIQKFKDRVTLTVDKSTSTAYMELSSLRSEDTAVYYCARTLDGYYDYWGQGTTVTVSS VL: DIQMTQSPSSLSASVGDRVTITCRASENIYSYLAWYQQKPGKAPKLLIYFAKTLAEGVPSRFSGSGSGTDFTLTISSLQPEDFATYYCQHHYGTPWTFGGGTKVEIKR
19 | 611 |  | hu199-17 (antibody, human IgG1, kappa, V domains shown, IgG1-YTE, kappa) VH: EVQLVQSGAEVKKPGASVKVSCKASGYTFTTYWMHWVRQAPGQGLEWIGMIDPSDSETTLIQKFKDRATLTVDKSTSTAYMELSSLRSEDTAVYYCARTLDGYYDYWGQGTTVTVSS VL: DIQMTQSPSSLSASVGDRVTITCRASENIYSYLAWYQQKPGKAPKLLVYFAKTLAEGVPSRFSGSVSGTDFTLTISSLQPEDFATYYCQHHYGTPWTFGGGTKVEIKR
20 | 737 |  | hu199-16 (antibody, human IgG1, kappa, V domains shown, IgG1-YTE, kappa) VH: EVQLVQSGAEVKKPGASVKVSCKASGYTFTTYWMHWVRQAPGQGLEWIGMIDPSDSETTLIQKFKDRATLTVDKSTSTAYMELSSLRSEDTAVYYCARTLDGYYDYWGQGTTVTVSS VL: DIQMTQSPSSLSASVGDRVTITCRASENIYSYLAWYQQKPGKAPKLLIYFAKTLAEGVPSRFSGSVSGTDFTLTISSLQPEDFATYYCQHHYGTPWTFGGGTKVEIKR
21 | 287 |  | hu199-15 (antibody, human IgG1, kappa, V domains shown, IgG1-YTE, kappa) VH: EVQLVQSGAEVKKPGASVKVSCKASGYTFTTYWMHWVRQAPGQGLEWIGMIDPSDSETTLIQKFKDRATLTVDKSTSTAYMELSSLRSEDTAVYYCARTLDGYYDYWGQGTTVTVSS VL: DIQMTQSPSSLSASVGDRVTITCRASENIYSYLAWYQQKPGKSPQLLVYFAKTLAEGVPSRFSGSGSGTQFTLTISSLQPEDFATYYCQHHYGTPWTFGGGTKVEIKR
22 | 391 |  | hu199-10 (antibody, human IgG1, kappa, V domains shown, IgG1-YTE, kappa) VH: EVQLVQSGAEVKKPGASVKVSCKASGYTFTTYWMHWVRQAPGQGLEWMGMIDPSDSETTLIQKFKDRVTLTVDKSTSTAYMELSSLRSEDTAVYYCARTLDGYYDYWGQGTTVTVSS VL: DIQMTQSPSSLSASVGDRVTITCRASENIYSYLAWYQQKPGKAPKLLIYFAKTLAEGVPSRFSGSVSGTDFTLTISSLQPEDFATYYCQHHYGTPWTFGGGTKVEIKR
